The subject of series [1] is rat hippocampal neurons. Description: CytoTox-Glo Cytotoxicity Assay of treated rat hippocampal neurons. It is filed as cell-based. As to conditions: conditioned medium of treated rat hippocampal neurons, 14 DIV; FIG. 14B. The procedure: (§1) Cell culture: The dissected hippocampi from fetuses obtained on embryonic day (E) 18 from timed pregnant Wistar rats (Charles River Laboratories) were digested using trypsinization and mechanical dissociation. The dissociated neurons were seeded at 1.0×10^5 cells/well in 24-well plate (Falcon). Infection of AAV-DJ with full-length human ApoE4 was performed at 7 days in vitro (DIV). 4-{4-[2-(3-methyl-4-oxo-3,4-dihydro-phthalazin-1-yl)-acetylamido]-benzyl}-piperazine-1-carboxylic acid tert-butyl ester (hereinafter also referred to as PH-002) (Merck) was treated at 4 days after infection (11 DIV). Sample collection for western blot and cytotoxicity analysis was performed at 7 days after infection (14 DIV).
Cytotoxicity analysis: Cytotoxicity of treated compound was evaluated by CytoTox-GIo™ Cytotoxicity Assay (Promega). In brief, 50 uL of conditioned medium and 50 uL of prepared CytoTox-GIo™ Cytotoxicity Assay reagent were mixed in 96-well white-walled plate (Sumitomo Bakelite). After incubation at room temperature for 15 min, luminescence was measured by SpectraMax iD5 (Molecular Devices).

The subject of series [2] is neurotoxic 12 kDa ApoE fragment. As to the kind of experiment: Western blot analysis of 12 kDa ApoE fragment production in rat hippocampal neurons expressing full-length human ApoE4. The conditions noted are these: rat hippocampal neurons infected with AAV-DJ full-length human ApoE4; treated at 11 DIV, collected at 14 DIV; concentration dependent; FIG. 14A. It is filed as cell-based. The procedure: as §1
Western blot analysis: Cells were lysed by RIPA buffer (50 mM Tris-HCl pH 7.6, 5 mM EDTA, 1 mM EGTA, 1% NP40, 0.25% sodium deoxycholate, 0.1 M NaCl, 0.5 mM PMSF) containing complete (EDTA-free) protease inhibitor cocktail (Roche) and PhosSTOP protein phosphatase inhibitor (Sigma), and sonicated. Sample Buffer Solution with Reducing Reagent (6×) (Nacalai Tesque) was added before SDS-PAGE. For SDS-PAGE, XV PANTERA MP Gel (DRC) 15% was used. For transfer, Trans-Blot Turbo (BIO-RAD) was used. For immunoblotting, iBind Western Systems (ThermoFisher Scientific) was used together with anti-ApoE PA5-27088 antibody (ThermoFisher Scientific). For detection, Fusion FX7 (Vilber Lourmat) was used.

The conditions of series [3]: literature, Chang et al.; cited from earlier work.
The test system of series [4] is rat primary hippocampal neurons. As to the kind of experiment: Mitochondrial respiration measurement (spare respiratory capacity) in AAV6-infected rat hippocampal neurons. The format is cell-based. As to conditions: 7 days after AAV6 infection (14 DIV), FIG. 13B. How it is done:
For assays using rat hippocampal neurons, the dissected hippocampi from fetuses obtained on embryonic day (E) 18 from timed pregnant Wistar rats (Charles River Laboratories) were digested using trypsinization and mechanical dissociation. The dissociated neurons were seeded at 1.5×10^4 cells/well in Seahorse XF96 cell culture microplate (Agilent Technologies) for mitochondrial respiration measurement or 1.0×10^5 cells/well in 24-well plate (Falcon) for Western blot analysis. Infection of AAV6 with full-length human ApoE4 or identified ApoE fragments (198-299, 199-299, 200-299) was performed at 7 days in vitro (DIV). Measurement of mitochondrial respiration or sample collection for Western blot analysis was performed at 7 days after infection (14 DIV).
(§2) Mitochondrial respiration measurement: Real-time measurement of oxygen consumption rates (OCR) was performed using an Extracellular Flux Analyzer XFe96 (Agilent Technologies). Before measurement, the culture medium was replaced by 37° C. pre-warmed XF Base Medium (Agilent Technologies) containing 10 mM sodium pyruvate (Sigma), 10 mM D-glucose (Sigma), 2 mM glutamine (Sigma). The pH of the measurement medium was adjusted to 7.4. The culture plates were incubated at 37° C. for 60 min prior to the assay. For analysis of mitochondrial function, XF Cell Mito Stress Test Kit (Agilent Technologies) was used. Following measurement of basal OCR, mitochondrial complex inhibitors were injected sequentially into each cell. The inhibitors were used at the following concentrations: oligomycin 1 μM; carbonyl cyanide 4-(trifluoromethoxy)phenylhydrazone (FCCP) 0.25 μM for Neuro2A cells, 2 μM for rat hippocampal neurons; rotenone/antimycin A 0.5 μM. OCR values were automatically calculated, recorded and plotted by the XFe96 software. Spare respiratory capacity was measured as (FCCP respiration—basal respiration).

The test system of series [5] is Neuro2A cells. As to the kind of experiment: Mitochondrial respiration measurement (spare respiratory capacity) in vector-transfected Neuro2A cells. The conditions noted are these: Neuro2A cells expressing the fragment; FCCP respiration minus basal respiration; FIG. 13A. It is filed as cell-based. How it is done: Cell culture: Neuro2A cells (ATCC) were seeded at 5.0×10^4 cells/well in a 24 well plate (Falcon) and cultured in D-MEM High Glucose (WAKO) containing 10% fetal bovine serum. Transfection of pAAV-CMV vectors encoding human ApoE4 (full-length) or the identified ApoE fragments (198-299, 199-299, 200-299) was done using Lipofectamine LTX and Plus Reagent (Invitrogen) on 1 day after seeding. 2 days later, vector-transfected cells were collected for Western blot analysis or seeded again at 2.0×10^4 cells/well in a Seahorse XF96 cell culture microplate (Agilent Technologies) 4 hours before mitochondrial respiration measurement.
as §2

Series [6] relates to Aβ. The conditions noted are these: literature, Pillot et al.; artificially-generated fragment; cited from earlier work.

Take `Cn1nc(CC(=O)Nc2ccc(CN3CCN(C(=O)OC(C)(C)C)CC3)cc2)c2ccccc2c1=O` [PH-002, 4-{4-[2-(3-methyl-4-oxo-3,4-dihydro-phthalazin-1-yl)-acetylamido]-benzyl}-piperazine-1-carboxylic acid tert-butyl ester]: in series [1], the cytotoxicity entry is “no cytotoxicity”. For the same molecule, the “amount of neurotoxic 12 kDa ApoE fragment” value in series [2] is “reduction in the amount of neurotoxic 12 kDa ApoE fragment”.
For ApoE4(1-299): full-length ApoE4, the “mitochondrial dysfunction and neurotoxicity” value in series [3] was “did not bring about these effects”.

B1: 199-299: C-terminal fragment consisting of amino acids 199-299 of human ApoE (SEQ ID NO: 2) (protein)
chain: AGQPLQERAQAWGERLRARMEEMGSRTRDRLDEVKEQVAEVRAKLEEQAQQIRLQAEAFQARLKSWFEPLVEDMQRQWAGLVEKVQAAVGTSAAPVPSDNH
Take B1: the spare respiratory capacity entry in series [4] and in series [5] was “reduction in spare respiratory capacity” in each case.

B2: 200-299: C-terminal fragment consisting of amino acids 200-299 of human ApoE (SEQ ID NO: 1) (protein)
chain: GQPLQERAQAWGERLRARMEEMGSRTRDRLDEVKEQVAEVRAKLEEQAQQIRLQAEAFQARLKSWFEPLVEDMQRQWAGLVEKVQAAVGTSAAPVPSDNH
On to B2, for which the “inhibition of the fusogenic properties of Aβ” value in series [6] is given as “able to inhibit the fusogenic properties of Aβ”. Further, the spare respiratory capacity result in series [4] and in series [5] was “reduction in spare respiratory capacity” in each case.

B3: 198-299: C-terminal fragment consisting of amino acids 198-299 of human ApoE (SEQ ID NO: 3) (protein)
chain: LAGQPLQERAQAWGERLRARMEEMGSRTRDRLDEVKEQVAEVRAKLEEQAQQIRLQAEAFQARLKSWFEPLVEDMQRQWAGLVEKVQAAVGTSAAPVPSDNH
Take B3: the spare respiratory capacity result in series [4] and in series [5] was “reduction in spare respiratory capacity” each time.

The record behind these values is US20220251171A1, “APOLIPOPROTEIN E FRAGMENTS” (EISAI R&D MANAGEMENT CO., LTD., priority 2019, published 2022).
